Experimental data from patent US20250215411A1, “FUSION PROTEINS AND USES THEREOF” (priority 2022, published 2025).

B1: RGD-SAP: RGD-4C (ACDCRGDCFCG) fused via GGSSRSS linker to N-terminus of saporin, C-terminal VDK and 6xHis tag; SEQ ID NO: 6 (protein)
chain: ACDCRGDCFCGGGSSRSSVTSITLDLVNPTAGQYSSFVDKIRNNVKDPNLKYGGTDIAVIGPPSKEKFLRINFQSSRGTVSLGLKRDNLYVVAYLAMDNTNVNRAYYFKSEITSAELTALFPEATTANQKALEYTEDYQSIEKNAQITQGDKSRKELGLGIDLLLTFMEAVNKKARVVKNEARFLLIAIQMTAEVARFRYIQNLVTKNFPNKFDSDNKVIQFEVSWRKISTAIYGDAKNGVFNKDYDFGFGKVRQVKDLQMGLLMYLGKPKVDKHHHHHH

Assays:
αvβ3 integrin = αvβ3 integrin (Homo sapiens, UniProt P05106+P06756); settings: cited from earlier work
αvβ5 integrin = αvβ5 integrin (Homo sapiens, UniProt P06756+P18084); settings: cited from earlier work
α5β1 integrin = α5β1 integrin (Homo sapiens, UniProt P05556+P08648); settings: cited from earlier work
αvβ6 integrin = αvβ6 integrin (Homo sapiens, UniProt P06756+P18564); settings: cited from earlier work
[1] = system: 5637, RT112, RT4, U87, MDA-MB-468 cancer cell lines; assay: Cell viability assay (MTT), cancer cell lines; format: cell-based, human
Method: (§1) Cultured cell lines (5×10^3 cells/well) were seeded in 96 wells plates and incubated for 72 h with various amounts of RGD-SAP or CYS-SAP at 37° C., 5% CO2. Cell viability was then quantified by 3-(4,5-dimethylthiazol-2-yl)-2,5-diphenyltetrazolium bromide staining (MTT) (working solution 0.5 μg/ml). After 1 h of incubation, the supernatants were removed, the formazan crystals were dissolved with dimethyl sulfoxide and the absorbance at 570 nm was measured using a microtiter plate reader. Competitive experiments were performed as described above using 100 nM of RGD-SAP or 1000 nM of CYS-SAP in the presence of 5000 nM of ACDCRGDCFCG peptide for 48 and 72 hours.
as §1, with “NGR-SAP, RGD-SAP, CgA-SAP, CYS-SAP, ATF-SAP” for “RGD-SAP”, “seed SAP” for “CYS-SAP”, “reader.” for “reader. Competitive experiments were performed as described above using 100 nM of RGD-SAP or 1000 nM of CYS-SAP in the presence of 5000 nM of ACDCRGDCFCG peptide for 48 and 72 hours.”

normal fibroblasts = assay: Cell viability assay (MTT), normal fibroblasts; format: cell-based; settings: 72 h
Method: as §1
as §1, with “NGR-SAP, RGD-SAP, CgA-SAP, CYS-SAP, ATF-SAP” for “RGD-SAP”, “seed SAP” for “CYS-SAP”, “reader.” for “reader. Competitive experiments were performed as described above using 100 nM of RGD-SAP or 1000 nM of CYS-SAP in the presence of 5000 nM of ACDCRGDCFCG peptide for 48 and 72 hours.”

[2] = system: 5637 bladder cancer cells; assay: MTT competition experiment with free RGD-4C peptide; format: cell-based, human; settings: 0.1 μM RGD-SAP or 1 μM CYS-SAP, 5 μM peptide, 48 and 72 h
Method: as §1

[3] = system: caspase 3 in 5637 and MDA-MB-468 cells; assay: Caspase 3 activation (western blot); format: cell-based, human; settings: 30 nM, 48 and 72 h
Method: Cells were washed twice with cold PBS, collected by scraping and centrifuged 5 min at 300 g. Cells were lysed for 30 min on ice in ice-cold buffer (50 mM Tris-HCl, pH 7.5, containing 150 mM NaCl, 2 mM NaF, 1 mM EDTA, 1 mM EGTA, 1 mM Na3VO4, 1 mM PMSF, 75 mU/ml aprotinin (Sigma-Aldrich), 1% TritonX-100 and a proteinase inhibitor Cocktail® (Sigma-Aldrich). Cell lysates were centrifuged at 10000×g at 4° C. for 10 min and the supernatants were recovered and quantified for total protein content. Equal amounts of cell protein extracts were separated by SDS-PAGE under reducing conditions unless stated otherwise. For western blot analysis, proteins were transferred onto a nitrocellulose membrane, incubated with 5% non-fat powdered milk in TBS-T (0.5% Tween-20) for 1 hour and then with the following antibodies: anti-saporin anti-serum (rabbit, 1:5000), anti-caspase 3 (rabbit, 1:2000, clone E87, Abcam), anti-beta actin (mouse, 1:10000, clone AC-15, Sigma-Aldrich). The antibody binding was detected using a secondary horseradish peroxidase conjugated antibodies (donkey anti-mouse/rabbit IgG HRP-linked, GE Healthcare) and an enhanced chemiluminescent (ECL, Merck Millipore).
To induce caspase 3 activation, cells were treated with 30 nM RGD-SAP or 2 mM DTT for 48 and 72 hours.

subcutaneous MB49 tumors = assay: Subcutaneous syngeneic bladder cancer mouse model; format: in vivo, C57BL/6 mice
Source text: (§2) Studies on animal models were approved by the Institutional Animal Care and Use Committee (Institutional Animal Care and Use Committee, IACUC) and performed according to the prescribed guidelines. C57BL/6 female mice (7 weeks old, Charles River, Calco, Italy) were challenged with subcutaneous injection in the left flank of 3-5×10^5 MB49 living cells; 5 days later, 4-6 mice/group were intravenously administered with various doses of RGD-SAP or CYS-SAP diluted in sodium chloride (0.9%, i.v., 200 μl). Tumor growth was estimated by calculating the volume using the formula r1×r2×r3×4/3 π, where r1 and r2 are the longitudinal and lateral radii, and r3 is the thickness of tumors protruding from the surface of normal skin. Animals were euthanized when tumors reached 10 mm in diameter, became ulcerated or a 15% animal body weight loss was measured.

[4] = Toxicity in the subcutaneous model (body weight, injection site, serum biochemical parameters); format: in vivo, C57BL/6 mice
Source text: as §2
Blood samples were collected from the retroorbital plexus of anesthetized mice using 4% isoflurane at the end of each experiment or before animal sacrifice. Blood samples were left at room temperature for at least 30 min before being processed and then centrifuged (800×g, 10 min) for serum separation. Serum albumin, aspartate transaminase, alanine transaminase, creatinine and urea were determined by using an automated analyzer (ScilVet ABC plus and Idexx Procyte analyzers) according to the manufacturers' instructions. Standard controls were run before each determination.

Chain of α5β1 integrin (P08648 42-1049): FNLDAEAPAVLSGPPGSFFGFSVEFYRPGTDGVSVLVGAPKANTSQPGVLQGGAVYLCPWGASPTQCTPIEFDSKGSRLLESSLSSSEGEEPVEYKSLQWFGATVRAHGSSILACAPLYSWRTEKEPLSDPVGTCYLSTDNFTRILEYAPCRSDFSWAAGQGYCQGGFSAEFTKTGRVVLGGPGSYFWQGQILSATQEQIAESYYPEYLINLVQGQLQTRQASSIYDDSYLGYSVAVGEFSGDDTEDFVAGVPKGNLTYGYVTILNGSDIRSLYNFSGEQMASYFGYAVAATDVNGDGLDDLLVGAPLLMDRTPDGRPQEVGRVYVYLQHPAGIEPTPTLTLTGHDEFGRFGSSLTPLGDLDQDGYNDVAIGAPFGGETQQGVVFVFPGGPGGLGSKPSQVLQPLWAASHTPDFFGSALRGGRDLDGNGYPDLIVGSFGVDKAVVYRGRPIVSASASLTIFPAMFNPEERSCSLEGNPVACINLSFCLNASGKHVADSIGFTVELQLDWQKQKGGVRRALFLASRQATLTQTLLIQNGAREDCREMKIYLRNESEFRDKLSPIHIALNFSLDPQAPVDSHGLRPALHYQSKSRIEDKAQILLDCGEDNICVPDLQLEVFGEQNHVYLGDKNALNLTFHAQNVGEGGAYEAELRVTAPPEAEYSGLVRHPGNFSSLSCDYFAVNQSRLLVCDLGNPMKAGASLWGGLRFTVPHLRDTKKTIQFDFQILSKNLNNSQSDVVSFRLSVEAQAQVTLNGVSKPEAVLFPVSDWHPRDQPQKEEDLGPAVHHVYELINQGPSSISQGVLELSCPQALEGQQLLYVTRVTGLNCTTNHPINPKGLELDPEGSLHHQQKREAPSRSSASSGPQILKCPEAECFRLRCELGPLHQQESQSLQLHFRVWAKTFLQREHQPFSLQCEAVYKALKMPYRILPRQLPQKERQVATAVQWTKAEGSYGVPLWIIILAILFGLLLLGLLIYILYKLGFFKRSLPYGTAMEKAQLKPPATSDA
Chain of α5β1 integrin (P05556 21-798): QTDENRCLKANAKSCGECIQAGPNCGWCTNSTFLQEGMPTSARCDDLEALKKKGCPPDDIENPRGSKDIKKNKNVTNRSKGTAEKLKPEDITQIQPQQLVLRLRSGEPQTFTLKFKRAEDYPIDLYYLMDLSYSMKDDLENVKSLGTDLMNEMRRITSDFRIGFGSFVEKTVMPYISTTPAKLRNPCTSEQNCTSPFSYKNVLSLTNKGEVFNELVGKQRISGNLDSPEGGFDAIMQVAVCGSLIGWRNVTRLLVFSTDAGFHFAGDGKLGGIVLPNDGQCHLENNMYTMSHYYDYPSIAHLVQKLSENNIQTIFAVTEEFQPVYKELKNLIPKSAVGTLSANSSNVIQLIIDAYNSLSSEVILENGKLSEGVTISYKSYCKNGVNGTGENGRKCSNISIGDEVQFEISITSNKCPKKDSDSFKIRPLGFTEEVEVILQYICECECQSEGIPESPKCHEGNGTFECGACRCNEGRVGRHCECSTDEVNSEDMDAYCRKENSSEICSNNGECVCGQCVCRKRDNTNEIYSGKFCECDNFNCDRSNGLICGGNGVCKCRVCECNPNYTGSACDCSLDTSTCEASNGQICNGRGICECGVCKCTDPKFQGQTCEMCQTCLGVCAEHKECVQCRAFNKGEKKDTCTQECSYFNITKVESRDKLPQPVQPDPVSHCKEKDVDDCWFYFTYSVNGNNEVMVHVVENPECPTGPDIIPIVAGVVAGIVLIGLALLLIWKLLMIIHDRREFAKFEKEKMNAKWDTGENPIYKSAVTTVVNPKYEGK
Chain of αvβ6 integrin (P06756 31-1048): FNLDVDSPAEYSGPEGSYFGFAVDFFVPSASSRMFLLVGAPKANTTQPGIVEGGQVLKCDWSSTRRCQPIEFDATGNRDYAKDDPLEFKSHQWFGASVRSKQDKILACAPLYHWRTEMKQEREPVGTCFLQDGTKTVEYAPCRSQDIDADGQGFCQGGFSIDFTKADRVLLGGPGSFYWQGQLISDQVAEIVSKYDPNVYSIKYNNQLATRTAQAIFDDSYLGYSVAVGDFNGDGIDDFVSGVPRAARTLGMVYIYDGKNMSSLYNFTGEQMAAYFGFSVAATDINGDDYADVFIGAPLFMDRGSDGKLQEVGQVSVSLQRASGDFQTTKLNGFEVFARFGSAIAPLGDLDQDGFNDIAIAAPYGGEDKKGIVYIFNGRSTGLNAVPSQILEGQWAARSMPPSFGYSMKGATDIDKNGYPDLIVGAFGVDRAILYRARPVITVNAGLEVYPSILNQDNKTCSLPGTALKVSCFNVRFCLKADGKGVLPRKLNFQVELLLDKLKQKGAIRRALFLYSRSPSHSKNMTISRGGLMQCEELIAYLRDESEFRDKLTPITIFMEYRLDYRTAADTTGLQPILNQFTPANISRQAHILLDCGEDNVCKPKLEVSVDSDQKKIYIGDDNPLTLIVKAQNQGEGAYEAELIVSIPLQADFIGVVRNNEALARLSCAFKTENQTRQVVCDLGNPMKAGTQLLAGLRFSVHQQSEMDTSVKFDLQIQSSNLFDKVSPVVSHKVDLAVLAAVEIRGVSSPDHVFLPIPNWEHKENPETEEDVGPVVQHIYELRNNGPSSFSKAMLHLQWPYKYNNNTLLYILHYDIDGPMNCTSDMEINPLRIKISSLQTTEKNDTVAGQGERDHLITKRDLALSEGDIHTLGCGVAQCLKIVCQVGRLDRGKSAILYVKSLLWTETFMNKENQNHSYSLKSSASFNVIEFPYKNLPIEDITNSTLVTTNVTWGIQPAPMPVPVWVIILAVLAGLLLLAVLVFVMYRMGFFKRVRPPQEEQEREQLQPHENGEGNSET
Chain of αvβ6 integrin (P18564 22-788): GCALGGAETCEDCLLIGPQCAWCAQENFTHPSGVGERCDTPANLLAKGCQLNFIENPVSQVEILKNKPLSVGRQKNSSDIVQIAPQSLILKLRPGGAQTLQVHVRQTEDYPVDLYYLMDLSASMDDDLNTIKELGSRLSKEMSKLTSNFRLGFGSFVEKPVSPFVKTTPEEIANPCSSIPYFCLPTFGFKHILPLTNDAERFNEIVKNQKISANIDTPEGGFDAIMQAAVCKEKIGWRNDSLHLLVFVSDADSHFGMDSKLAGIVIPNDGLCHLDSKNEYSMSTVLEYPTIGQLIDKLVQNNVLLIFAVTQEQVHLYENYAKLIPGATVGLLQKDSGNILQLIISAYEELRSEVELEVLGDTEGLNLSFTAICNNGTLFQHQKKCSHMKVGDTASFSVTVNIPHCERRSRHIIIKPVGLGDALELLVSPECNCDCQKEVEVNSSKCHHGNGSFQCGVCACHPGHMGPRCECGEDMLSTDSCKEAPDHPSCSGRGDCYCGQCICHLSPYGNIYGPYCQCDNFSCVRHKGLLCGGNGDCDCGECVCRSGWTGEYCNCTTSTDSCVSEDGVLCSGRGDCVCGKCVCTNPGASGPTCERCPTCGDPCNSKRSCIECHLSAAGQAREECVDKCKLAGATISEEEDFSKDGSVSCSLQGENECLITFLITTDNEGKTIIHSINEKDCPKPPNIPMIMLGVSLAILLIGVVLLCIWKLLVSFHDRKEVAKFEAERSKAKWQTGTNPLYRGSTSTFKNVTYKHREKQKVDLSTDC
Chain of αvβ5 integrin (P06756 31-1048): as the sequence (P06756 31-1048) above
Chain of αvβ5 integrin (P18084 24-799): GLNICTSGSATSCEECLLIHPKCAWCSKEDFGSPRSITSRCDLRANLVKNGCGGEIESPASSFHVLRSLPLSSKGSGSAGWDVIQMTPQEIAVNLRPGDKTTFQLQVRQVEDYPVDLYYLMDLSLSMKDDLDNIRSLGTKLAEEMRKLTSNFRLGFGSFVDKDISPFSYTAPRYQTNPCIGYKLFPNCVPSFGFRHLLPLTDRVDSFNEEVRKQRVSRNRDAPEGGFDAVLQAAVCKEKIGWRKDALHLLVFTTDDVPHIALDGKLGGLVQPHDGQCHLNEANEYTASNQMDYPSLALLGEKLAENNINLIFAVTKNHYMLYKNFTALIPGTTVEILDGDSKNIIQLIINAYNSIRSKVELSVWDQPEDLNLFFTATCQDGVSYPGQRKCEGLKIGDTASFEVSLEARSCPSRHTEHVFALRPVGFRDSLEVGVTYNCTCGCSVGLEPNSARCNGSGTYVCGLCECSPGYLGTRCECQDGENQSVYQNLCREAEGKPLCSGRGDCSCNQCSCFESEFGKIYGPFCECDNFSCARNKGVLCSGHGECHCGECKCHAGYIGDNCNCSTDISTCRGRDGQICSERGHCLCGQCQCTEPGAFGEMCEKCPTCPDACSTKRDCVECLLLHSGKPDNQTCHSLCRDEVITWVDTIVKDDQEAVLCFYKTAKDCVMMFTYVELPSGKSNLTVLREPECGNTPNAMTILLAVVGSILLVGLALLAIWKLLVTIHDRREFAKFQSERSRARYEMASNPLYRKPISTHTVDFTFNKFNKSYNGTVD

| Molecule | affinity value (αvβ3 integrin) | affinity value (αvβ5 integrin) | affinity value (α5β1 integrin) | affinity value (αvβ6 integrin) | cytotoxic effect compared to CYS-SAP ([1]; MTT, 72 h, all cancer cells) | sensitivity of U87 cells compared with the other cell lines ([1]; U87, highest amount of αvβ3) | cytotoxic effect compared to CYS-SAP (normal fibroblasts) | effect of excess free RGD-4C peptide on cytotoxic activity [2] | caspase 3 activation [3] | effect on tumor growth (subcutaneous MB49 tumors; 0.25 mg/kg i.v., days 5, 10, 15) | effect on tumor growth (subcutaneous MB49 tumors; 0.5 mg/kg i.v., days 5, 10, 15) | effect on tumor growth (subcutaneous MB49 tumors; 0.75 mg/kg i.v., days 5, 10, 15) | survival, hazard ratio versus vehicle (subcutaneous MB49 tumors; 0.75 mg/kg, Mantel-Cox log-rank, 95% CI 1.19-23.10) | complete tumor eradication (subcutaneous MB49 tumors; 1 mg/kg i.v., end of experiment day 19, n=4) | effect on tumor growth (subcutaneous MB49 tumors; 1 mg/kg i.v., three times every five days from day 5) | serum AST and CHE versus vehicle ([4]; 1 mg/kg) | body weight ([4]; 1 mg/kg i.v., day 19) | injection site reaction ([4]; 1 mg/kg i.v., tails) | systemic toxicity (liver and kidney serum parameters) ([4]; 0.25-1 mg/kg) | body weight ([4]; 0.75 and 0.5 mg/kg i.v., days 5, 10, 15) |
| --- | --- | --- | --- | --- | --- | --- | --- | --- | --- | --- | --- | --- | --- | --- | --- | --- | --- | --- | --- | --- |
| RGD-4C: ACDCRGDCFCG peptide (SEQ ID NO: 2), an αv-integrin ligand | 8.3 nM | 46 nM | 244 nM | 380 nM | – | – | – | – | – | – | – | – | – | – | – | – | – | – | – | – |
| B1 | – | – | – | – | stronger cytotoxic effect | most sensitive | but not with normal fibroblasts | significantly decreased the activity | caspase 3 activation was detectable as cleaved form | but not 0.25 mg/kg | significant delay of tumor growth | significant delay of tumor growth | 5.25 | 1 tumor undetectable and complete eradication in one mouse | marked reduction of the tumor volume in all mice | significantly higher values | loss of body weight | severe necrosis in the tails | dose dependent and apparent only with the highest dose used | without causing loss of body weight |
